Experimental data: patent US20030064943A1

Molecular target: human transforming growth factor β2 (TGFβ2) (human) (UniProt P61812)
Test: cell-based or functional assay

human transforming growth factor β2 (TGFβ2) (human), sequence (P61812 303-414): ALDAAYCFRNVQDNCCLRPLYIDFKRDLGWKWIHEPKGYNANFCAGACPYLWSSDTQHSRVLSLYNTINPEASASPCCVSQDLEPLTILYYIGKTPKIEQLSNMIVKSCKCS

Ki, reversal of TGFβ2-mediated inhibition of 3H-thymidine incorporation in mink lung epithelial cells: 0.5 nM
Substance: latency associated peptide (LAP)
